{"source": "paper PMC5680199", "origin": "cited, not measured here", "target": "human thrombin (human) (UniProt P00734+P00734)", "test": "not stated (cited)", "conditions": "phi29 DNA polymerase buffer adjusted to 10 mM K+ (optimum), ThT-HE 5 uM, 37 C, 2 h; pH not given in material", "data": [{"substance": "29-mer thrombin-binding aptamer (TBA)", "values": [{"measurement": "Kd", "value": 0.5, "unit": "nM"}]}]}
